From doi:10.1101/2021.03.29.437455 come the findings set out here.

Assay [1] has as its target polo-like kinase 1 (PLK1) PBD, 345-603 (UniProt P53350). In words: isothermal titration calorimetry. The note with it: reference: unphosphorylated peptide PNTSSPS; sites S379. (In general: ITC needs no label: the signal is the heat of the interaction.)
In assay [2] the target is PLK1 polo-box domain (PBD), PLK1 residue 345-603 (UniProt P53350). Put plainly: ITC.
Assay [3] concerns the target GST-EBNA2 446-474 S457A/T465V (Epstein-Barr virus) (UniProt P12978). In words: pull-down. The settings on record: remark: other sources report otherwise.

As usually defined, the KD is the equilibrium constant for the complex coming apart. Take “EBNA2 (EBV nuclear antigen 2) (from UniProt P12978) phosphopeptide PNTSpSPS”: the KD in assay [1] was 8.19 µM. That is a single-digit micromolar value.
One may read the Kd as the equilibrium constant for the complex coming apart. For orientation: stoichiometry N means a count of units in the complex or per binding partner. As for EBNA2 phospho-heptapeptide PNTSpSPS, in assay [2], the Kd was 8.19 µM and the stoichiometry N worked out at 1.
“histone acetylase and co-activator p300, Q09472 1-2414” yielded a fold change of p300 binding against wt in assay [3] of 8 to 9 fold.
